Consider nine molecules from patent US20150086553A1 (SAMSUNG ELECTRONICS, published 2015).

The target of experiment [1] is T1, Annexin A1 on cancer cells (SNU1, MDA-MB-231) (UniProt P04083 2-346, limits assumed).
T1 construct: whole, on cells; Endogenous protein of cancer cell lines said to overexpress Annexin A1; Assay buffer was HBSS(+) with Ca2+ and Mg2+; also called Annexin A1 on cancer cell surfaces; extracellular portion of Annexin A1 in cancer cells
T1 sequence (looked up): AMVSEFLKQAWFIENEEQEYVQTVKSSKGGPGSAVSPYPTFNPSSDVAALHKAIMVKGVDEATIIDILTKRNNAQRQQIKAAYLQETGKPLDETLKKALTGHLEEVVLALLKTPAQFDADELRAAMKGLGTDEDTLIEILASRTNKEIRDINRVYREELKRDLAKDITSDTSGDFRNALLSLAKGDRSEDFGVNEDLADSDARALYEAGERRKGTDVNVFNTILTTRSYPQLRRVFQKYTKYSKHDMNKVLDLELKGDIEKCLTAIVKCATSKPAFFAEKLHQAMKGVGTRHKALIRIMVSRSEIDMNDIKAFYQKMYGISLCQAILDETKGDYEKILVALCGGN
Kind of experiment: cell-based ELISA on SNU1 and MDA-MB-231 cells, 250/125/25 ng scFv per well, anti-HA-HRP. On the procedure:
The selected Annexin A1-binding scFv was analyzed for binding specificity by cell-based ELISA using the cancer cells SNU1 and MDA-MB-231 in which Annexin A1 is overexpressed.
Briefly, after SNU1 (ATCC) and MDA-MB-231 (ATCC) cancer cells were maintained at 37° C. in RPMI-1640 and DMEM, respectively, under a supply of 5% CO₂, they were seeded at a density of 5×10⁵ cells into 96-well plates (NUNC). Purified proteins from the selected scFv (N32, N33, N43, N46, N48, N314, N36, F2, F4, F5, F6, F8, F10) were added in an amount of 250 ng, 125 ng, or 25 ng to each well, incubated at 4° C. for 90 min, and washed twice with HBSS (+) buffer (Gibco, 14025-092; HBSS containing Ca²⁺ and Mg²⁺; calcium chloride (CaCl₂) 12.6 mM, magnesium chloride 4.9 mM, and magnesium sulfate 4 mM). Thereafter, a 1/200 dilution of an anti-HA-HRP secondary antibody (Santa Cruz), configured to detect an HA tag conjugated to an scFv terminus, was added to in an amount of 50 ul to each well, and incubated for 1 hr. A color was developed for 10 min with the addition of 150 ul of the Super AquaBlue ELISA substrate solution (eBioScience) for the HRP of the secondary antibody. Absorbance was read at 405 nm to determine the binding of scFv to the Annexin A1 on cancer cells.
(In general: In an ELISA, binding on a coated surface is turned into a signal by an enzyme label.)

Experiment [2] deals with T2, full-length Annexin A1 protein (346 amino acids; Accession No. NP-000691.1) (human, UniProt P04083 1-346).
T2 construct: Biotinylated for biopanning; coated at 4 ug per well for ELISA
T2 sequence: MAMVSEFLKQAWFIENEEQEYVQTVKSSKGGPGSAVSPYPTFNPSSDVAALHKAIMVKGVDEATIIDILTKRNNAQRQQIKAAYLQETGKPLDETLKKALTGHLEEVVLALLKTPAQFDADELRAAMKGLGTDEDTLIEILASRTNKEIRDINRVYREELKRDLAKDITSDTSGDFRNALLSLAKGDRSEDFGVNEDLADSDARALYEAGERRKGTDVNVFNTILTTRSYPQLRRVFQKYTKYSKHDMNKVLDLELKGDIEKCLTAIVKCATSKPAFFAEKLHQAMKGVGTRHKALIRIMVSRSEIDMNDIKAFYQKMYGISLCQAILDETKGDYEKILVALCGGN
Kind of experiment: scFv selected by ELISA on plate-coated full-length Annexin A1, anti-HA-HRP detection.

Experiment [3] addresses T3, Annexin A1 N-terminal peptide (30 amino acids, biotin conjugated) (biotin conjugated form (position not given)).
T3 construct: Synthetic peptide, captured on streptavidin-coated plates for ELISA; also called N-terminal region of Annexin A1; Annexin A1 N-terminus
T3 peptide: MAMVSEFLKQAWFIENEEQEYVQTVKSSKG
Kind of experiment: scFv selected by ELISA on biotinylated N-terminal peptide on streptavidin plates, anti-HA-HRP detection.

The target in experiment [4] is T3, Annexin A1 N-terminal peptide (30 amino …). In words: scFv selected by ELISA on biotinylated N-terminal peptide.

B1: scFv F8 (scFv)
scFv: EVQLLESGGGLVQPGGSLRLSCAASGFTFSSYSMSWVRQAPGKGLEWVSGISPGSGSIYYADSVKGRFTISRDNSKNTLYLQMNSLRAEDTAVYYCARRIHPFDYWGQGTLVAVSSGGGGSGGGGSGGGGSQSVLTQPPSASGTPGQRVTISCTGSSSNIGNNDVSWYQQLPGTAPKLLIYSDNQRPSGVPGRFSGSKSGTSASLAISGLRSEDEADYYCGAWDSSLNAYVFGGGTKLTVLG
notes: also called clone G3
Take B1: the binding result in experiment [1] and in experiment [2] was “binds” in each case.

B2: scFv F6 (scFv)
scFv: EVQLLESGGGLVQPGGSLRLSCAASGFTFSNYAMSWVRQAPGKGLEWVSSISSNSGNKYYADSVKGRFTISRDNSKNTLYLQMNSLRAEDTAVYYCAKATLGMDHIHAYSAYGMDVWGQGTLVTVSSGGGGSGGGGSGGGGSQSVLTQPPSASGTPGQRATISCTGSSSNIGSNSVSWYQQLPGTAPKLLIYANSNRPSGVPDRFSGSKSGTSASLAISGLRSEDEADYYCAAWDDSLNAYVFGGGTKLTVLG
notes: also called clone C5
Regarding B2, the binding result in experiment [1] and in experiment [2] was “binds” in each case.

B3: scFv N43 (scFv)
scFv: EVQLLESGGGLVQPGGSLRLSCAASGFTFSDYSMGWVRQAPGRGLEWVSGIYPSGGNTYYADSVKGRFTISRDNSKNTLYLQMNSLRAEDTAVYYCAKRPSRFDYWGQGTLVAVSSGGGGSGGGGSGGGGSQSVLTQPPSASGTPGQRVTISCTGSSSNIGNNDVNWYQQLPGTAPKLLIYSNSHRPSGVPDRFSGSKSGTSASLAISGLRSEDEADYYCGTWDDSLNGYVFGGGTKLTVLG
B3: the binding result in experiment [1] and in experiment [3] was “binds” throughout.

B4: scFv N34 (scFv)
scFv: EVQLLESGGGLVQPGGSLRLSCAASGFTFSNYAMSWVRQAPGKGLEWVSAIYPGGGSIYYADSVKGRFTISRDNSKNTLYLQMNSLRAEDTAVYYCARRLQIFDYWGQGTLVTVSSGGGGSGGGGSGGGGSQSVLTQPPSASGTPGQRVTISCTGSSSNIGSNNVTWYQQLPGTAPKLLIYSDSHRPSGVPDRFSGSKSGTSASLAISGLQSEDEADYYCGSWDYSLSAYVFGGGTKLTVLG
notes: also called clone C11
On to B4, for which the binding result in experiment [4] is reported as “binds”.

B5: scFv N314 (scFv)
scFv: EVQLLESGGGLVQPGGSLRLSCAASGFTFGGYAMSWVRQAPGKGLEWVSGIYPGGGSTYYADSVKGRFTISRDNSKNTLYLQMNSLRAEDTAVYYCARRLTIFDYWGQGTLVTVSSGGGGSGGGGSGGGGSQSVLTQPPSASGTPGQRVTISCSGSSSNIGNNDVTWYQQLPGTAPKLLIYSDSHRPSGVPDRFSGSKSGTSASLAISGLRSEDEADYYCGTWDDSLSGYVFGGGTKLTVLG
notes: also called clone G11
For the molecule B5, the binding result in experiment [1] and in experiment [3] was “binds” each time.

B6: scFv N32 (scFv)
scFv: EVQLLESGGGLVQPGGSLRLSCAASGFTFSNYAMSWVRQAPGKGLEWVSGIYPNSGSNTYYADSVKGRFTISRDNSKNTLYLQMNSLRAEDTAVYYCARRPTLFDYWGQGTLVTVGSGGGGSGGGGSGGGGSQSVLTQPPSASGTPGQRVTISCTGSSSNIGSNSVNWYQQLPGTAPKLLIYSDSHRPSGVPDRFSGSKSGTSASLAISGLQSEDEADYYCATWDDSLNGYVFGGGTKLTVLG
notes: also called clone C9
For B6, the binding result in experiment [1] and in experiment [3] was “binds” in each case.

B7: scFv F4 (scFv)
scFv: EVQLLESGGGLVQPGGSLRLSCAASGFTFSGYYMSWVRQAPGKGLEWVSSISPSGSSIYYADSVKGRFTISRDNSKNTLYLQMNSLRAEDTAVYYCAKGSPGFDYWGQGTLVTVSSGGGGSGGGGSGGGGSQSVLTQPPSASGAPGQRVTISCSGSSFNIGSNDVSWYQQLPGTAPKLLIYSDSHRPSGVPDRFSGSKSGTSASLAISGLQSEDEADYYCGSWDYSLSAYVFGGGTKLTVLG
As for B7, the binding result in experiment [1] and in experiment [2] was “binds” throughout.

B8: scFv F5 (scFv)
scFv: EVQLLESGGGLVQPGGSLRLSCAASGFTFSDYAMSWVRQAPGKGLEWVSGISYGGGNTYYADSVKGRFTISRDNSKNTLYLQMNSLRAEDTAVYYCAKRLGSFDYWGQGTLVTVSSGGGGSGGGGSGGGGSQSVLTQPPSASGTPGRRVTISCTGTSSNIGSNYVSWYRQLPGTAPKLLIYAGNHRPSGVPDRFSGSKSGTSASLAISGLRSEDEADYYCGSWDSSLSAYVFGGGTKLTVLG
notes: also called clone B5
As to B8, the binding result in experiment [1] and in experiment [2] was “binds” each time.

B9: scFv F10 (scFv)
scFv: EVQLLESGGGLVQPGGSLRLSCAASGFTFSDYSMSWVRQAPGKGLEWVSVISPDSSNTYYADSVKGRFTISRDNSKNTLYLQMNSLRAEDTAVYYCAKVTGTCGPRSCYYYDAMDVWGQGTLVTVSSGGGGSGGGGSGGGGSQSVLTQPPSASGTPGQRVTISCSGSSSNIGSNAVSWYQQLPGTAPKLLIYYNSHRPSGVPDRFSGPKSGTSASLAISGLRSEDEADYYCATWDSSLNGYVFGGGTKLTVLG
B9: the binding result in experiment [1] and in experiment [2] was “binds” each time.
